Assay results taken from the supplement of paper PMC9732359.
± gives the uncertainty stated by the source.

Assay: protein stability index of a GFP-peptide fusion (yeast GPS) (PSI 1-4); higher = more stable; sorted into four equal gates, so the index is relative within each strain
Procedure, shortened: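 Tiled 17-residue peptides from yeast proteins were fused downstream of GFP on a plasmid that also expresses Cherry, and the pooled library was carried in yeast. Mid-log cultures grown in leucine-free medium were sorted into four equal gates by GFP/Cherry fluorescence ratio. Plasmids from each gate were PCR-amplified and Illumina-sequenced, and reads were assigned to strains by barcodes. Each peptide's protein stability index is the sum, over gates, of the gate's read frequency multiplied by its gate number.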

Sequence	protein stability index (doa10∆)	protein stability index (pdr5∆)	protein stability index (san1∆)	protein stability index (ubr1∆)
KNLKPQEQLKNVKNDVS [YIL149C/MLP2]	3.23 ± 0.089	3.21 ± 0.067	2.51 ± 0.1	3.01 ± 0.096
KNSTSSMTAVPKPLKFL [RPN1]	2.03 ± 0.071	2.31 ± 0.072	1.98 ± 0.062	2.15 ± 0.069
KNTEEGKALVHHYEECA [QCR6]	3.37 ± 0.067	3.29 ± 0.072	3.5 ± 0.051	3.38 ± 0.052
KNTELSYDFLPLSNIKA [RPN12]	3.13 ± 0.075	2.85 ± 0.074	3.08 ± 0.086	3.09 ± 0.068
KNVKHSGNIQLDEIIEI [RPL12A]	3.24 ± 0.071	3.2 ± 0.067	3.15 ± 0.053	3.22 ± 0.065
KNVNIEDITEPKPDKPS [ESC2]	2.96 ± 0.094	3.1 ± 0.099	2.51 ± 0.1	2.94 ± 0.13
KNVRTRIKLATTSERVS [RRI1]	2.6 ± 0.058	2.56 ± 0.058	2.8 ± 0.086	2.36 ± 0.074
KNYLKNYILNFKQSNSE [CDC53]	2.6 ± 0.044	1.95 ± 0.043	2.34 ± 0.083	1.89 ± 0.037
KPAFSFGAKSDEKKDSD [YJL041W/NSP1]	3.35 ± 0.087	3.25 ± 0.069	3.21 ± 0.058	3.46 ± 0.056
KPAFSFGINTNTTKTAD [YLR335W/NUP2]	2.98 ± 0.098	3.09 ± 0.1	3.11 ± 0.063	3.46 ± 0.064
KPALGSLGSSSTTASGT [YGR119C/NUP57]	3.22 ± 0.085	3.3 ± 0.084	3.05 ± 0.062	3.06 ± 0.1
KPMNKGQHKNNTSLNIN [SWP82]	2.92 ± 0.092	2.84 ± 0.091	2.91 ± 0.066	2.98 ± 0.059
KPNLNYFKSILLNKNTG [SWI1]	2.17 ± 0.058	2.19 ± 0.044	1.76 ± 0.066	1.75 ± 0.038
KPSNGKGSRKSSKAATP [SNF12]	3 ± 0.085	3.02 ± 0.076	3.24 ± 0.079	3.239 ± 0.027
KPTSPFIDSICKLFDKI [SRB8]	1.56 ± 0.04	1.93 ± 0.035	1.56 ± 0.055	1.41 ± 0.034
KPWFATVNGQARDLATM [FAS1]	3.01 ± 0.11	3.08 ± 0.1	3 ± 0.083	3.05 ± 0.064
KQKSWVPSYIHVEKERA [YIL149C/MLP2]	1.79 ± 0.058	2.25 ± 0.048	2.12 ± 0.082	2 ± 0.046
KQLVEKAELRLAIADSP [ECM29]		3.38 ± 0.29		3.29 ± 0.16
KQTAAYRTPGSSGVLSS [SSN2]	2.88 ± 0.063	3.04 ± 0.063	2.87 ± 0.077	2.88 ± 0.045
KQYDNRITKSNEKSQAE [LRP1]	2.91 ± 0.087	2.91 ± 0.11	2.77 ± 0.075	3.02 ± 0.037
KRAASVARHIYMRKQVG [RPS19A]	1.7 ± 0.2		1.88 ± 0.28	
KRCVGVILGDANSSTIR [RPN8]	2.85 ± 0.042	2.77 ± 0.051	2.82 ± 0.061	2.94 ± 0.039
KREASRGFFDILSLATE [MCD1]	3.08 ± 0.083	3.21 ± 0.06	2.91 ± 0.063	3.11 ± 0.05
KREGKTRLLNIVMQLRK [ISW2]	2.7 ± 0.078	3.02 ± 0.063	3.11 ± 0.054	2.97 ± 0.057
KRHSYAQSSHIRAIRKV [RPS1A]	2.399 ± 0.019	2.336 ± 0.017	2.423 ± 0.022	2.446 ± 0.015
KRLSAALSKFLTHPKYL [YML103C/NUP188]	2.48 ± 0.072	2.25 ± 0.066	2.84 ± 0.07	2.91 ± 0.065
KRRKLDLNNAVQKRDEV [SMC4]	3.41 ± 0.26	2.89 ± 0.12	2.96 ± 0.068	2.96 ± 0.079

Sequence	protein stability index (doa10∆)	protein stability index (pdr5∆)	protein stability index (san1∆)	protein stability index (ubr1∆)
KRSDLTGANSIYSVEKK [UBP6]	3.09 ± 0.12	2.8 ± 0.15	2.57 ± 0.15	3.16 ± 0.056
KRSTVPLNDGFVDLVEH [YML103C/NUP188]	3.06 ± 0.09	2.97 ± 0.093	3.37 ± 0.12	2.69 ± 0.053
KSEFDDLSLNIHPIPSV [YMR129W/POM152]	2.64 ± 0.043	2.92 ± 0.039	2.75 ± 0.032	2.76 ± 0.032
KSIIGKLTAERANLRKY [POP1]	2.72 ± 0.059	2.92 ± 0.081	2.8 ± 0.07	2.6 ± 0.074
KSKEDMKQLKFFKPLDY [SNU114]	3.32 ± 0.14	3.08 ± 0.098	3.05 ± 0.16	3.29 ± 0.087
KSKGDVDIKGEDLHEKN [NUT1]	3.32 ± 0.27		3.44 ± 0.15	
KSKKSWLNRLNNWLFGW [YMR153W/NUP53]	2.81 ± 0.054	2.66 ± 0.046	2.51 ± 0.053	2.94 ± 0.041
KSKTSTGKERSKKRKLN [SNM1]	3.1 ± 0.085	3.2 ± 0.097	3.644 ± 0.036	3.21 ± 0.09
KSLGLKLPLSVINVSAQ [RPS17A]	1.35 ± 0.052	1.36 ± 0.048	1.41 ± 0.13	1.37 ± 0.073
KSNSTGNISSSTVKKKD [REC8]	2.96 ± 0.058	2.96 ± 0.058	2.83 ± 0.039	3.02 ± 0.049
KSQEQREHSLQLFRTNK [PRP28]	3 ± 0.24	2.51 ± 0.11	2.88 ± 0.12	2.9 ± 0.076
KSSAFVIDIGASGCNVT [ARP7]	1.81 ± 0.039	2.46 ± 0.063	2.17 ± 0.067	2.55 ± 0.045
KSSILTVLQKNSLLLDS [YML103C/NUP188]	1.84 ± 0.056	1.71 ± 0.08	1.56 ± 0.075	2.36 ± 0.085
KSSNDTIEHAADITDGN [YCG1]	2.98 ± 0.25	3.16 ± 0.2	3.23 ± 0.17	3.3 ± 0.15
KSSVPGSAELRNSYPAS [RPN3]	2.66 ± 0.089	3.33 ± 0.076	2.73 ± 0.078	3.25 ± 0.095
KSVRILKNKAEYLKNCP [RPC40]	3.13 ± 0.066	3.19 ± 0.064	3.12 ± 0.049	3.15 ± 0.046
KSYASLLAQLNGTVNNN [RPT3]	2.61 ± 0.14	1.84 ± 0.11	2.2 ± 0.19	2.55 ± 0.12
KTADVKRQYVKQFLTKD [RPL20A]	2.94 ± 0.087	2.92 ± 0.055	2.2 ± 0.07	2.6 ± 0.048
KTAYSIYLSQNELTDAI [RPN1]	2.48 ± 0.037	2.28 ± 0.038	2.71 ± 0.037	2.08 ± 0.023
KTCIQGINSPLSSVALR [YJL039C/NUP192]		1.41 ± 0.25		
KTDLELLVERLKEDDSS [RPN1]	3.18 ± 0.11	3.3 ± 0.14	3.05 ± 0.1	3.18 ± 0.17
KTDPAGYYVGYKATATG [SCL1]	2.98 ± 0.08	3.24 ± 0.065	3.21 ± 0.065	3.25 ± 0.1
KTICNLLISDTESNELI [IRR1]	2.74 ± 0.063	2.73 ± 0.075	2.4 ± 0.055	2.68 ± 0.065
KTIEVTAEINCFMHLLV [RPN3]		1.77 ± 0.26	1.78 ± 0.2	1.67 ± 0.19
KTITLEVESSDTIDNVK [RPS31]	2.88 ± 0.1	3.08 ± 0.062	2.77 ± 0.12	2.64 ± 0.086
KTITSGLKYALATGNWG [RPB2]	2.32 ± 0.066	2.33 ± 0.056	2.19 ± 0.079	2.31 ± 0.048
KTKWDRKPMGKRINFEK [POP1]	2.84 ± 0.11	3.35 ± 0.075	2.75 ± 0.23	3 ± 0.17
